Measured values as given in PMC12645962.

How the values were obtained:
[1] = biological target: 1059-SOSIP soluble Env trimer produced in FreeStyle 293 F cells (HIV-1 1059); test: SEC; HiLoad 16/600 Superdex 200 pg column after GNA lectin affinity purification; trimeric fractions taken
[2] = biological target: 1059-SOSIP soluble Env trimer produced in HEK293 cells grown in BalanCD medium (HIV-1 1059); test: as above

Row | Substance | stoichiometry N [1] | stoichiometry N [2]
1 | 1059-SOSIP soluble Env trimer produced in FreeStyle 293 F cells (domain or fragment) | 3 | –
2 | 1059-SOSIP soluble Env trimer produced in HEK293 cells grown in BalanCD medium (domain or fragment) | – | 3
